The values below come from article doi:10.1101/659029.

Numbering of substitutions follows the chain as printed.

First the molecules themselves.
B1: substrate-4 (RNA-4/Cy5 DNA) (mixed)
DNA 1: GGCACCAACACAAAACACATCTACACUCAACAAUCACUUU
DNA 2: GTAGATGTGTTTTGTGTTGGTGCC
modifications: strand 1 RNA with DNA at nt 17-24 (duplex end proximal to overhang)
B2: substrate-5 (RNA-5/Cy5 DNA) (mixed)
RNA: B1 DNA 1 with T20U, T22U
DNA: GTAGATGTGTTTTGTGTTGGTGCC
modifications: strand 1 RNA with DNA at nt 9-16 (middle of duplex)
B3: substrate-1 (RNA-1/Cy5 DNA) (DNA:RNA)
RNA: GGCACCAACACAAAACACAUCUACACUCAACAAU
DNA: GTAGATGTGTTTTGTGTTGGTGCC

The target of this series is Prp43p;Ntr1p (1-120) (Saccharomyces cerevisiae (budding …, UniProt P53131;Q06411 1-767;1-120, |)). The series is described as follows: EMSA. Background: In EMSA bound probe runs differently from free probe, usually more slowly.
Chain of Prp43p;Ntr1p (1-120) (Saccharomyces cerevisiae (P53131 whole entry, chain 1 of 2): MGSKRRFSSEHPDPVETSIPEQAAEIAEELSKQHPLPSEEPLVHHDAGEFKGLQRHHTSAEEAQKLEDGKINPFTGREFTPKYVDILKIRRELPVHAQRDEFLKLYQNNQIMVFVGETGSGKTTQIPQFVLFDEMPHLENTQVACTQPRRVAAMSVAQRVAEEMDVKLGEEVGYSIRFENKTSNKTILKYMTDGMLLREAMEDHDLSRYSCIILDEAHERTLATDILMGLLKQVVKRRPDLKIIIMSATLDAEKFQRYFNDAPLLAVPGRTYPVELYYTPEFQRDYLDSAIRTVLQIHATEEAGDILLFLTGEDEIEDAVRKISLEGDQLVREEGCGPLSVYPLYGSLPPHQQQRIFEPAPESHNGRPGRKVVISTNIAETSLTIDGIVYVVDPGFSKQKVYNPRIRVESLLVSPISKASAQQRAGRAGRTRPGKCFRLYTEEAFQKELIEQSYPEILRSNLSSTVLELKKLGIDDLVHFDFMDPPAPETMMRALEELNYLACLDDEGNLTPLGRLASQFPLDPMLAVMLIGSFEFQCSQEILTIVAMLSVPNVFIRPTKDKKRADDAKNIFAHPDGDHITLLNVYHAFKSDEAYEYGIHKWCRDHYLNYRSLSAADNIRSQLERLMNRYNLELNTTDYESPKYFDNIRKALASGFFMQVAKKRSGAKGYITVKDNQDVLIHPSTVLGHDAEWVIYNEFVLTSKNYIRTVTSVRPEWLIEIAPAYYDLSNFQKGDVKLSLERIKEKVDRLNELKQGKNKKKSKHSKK
Chain of Prp43p;Ntr1p (1-120) (Saccharomyces cerevisiae (Q06411 1-120, chain 2 of 2): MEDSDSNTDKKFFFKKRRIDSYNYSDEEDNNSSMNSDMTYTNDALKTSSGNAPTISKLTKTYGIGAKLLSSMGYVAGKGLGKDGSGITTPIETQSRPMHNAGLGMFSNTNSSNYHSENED
For the molecule B1, the binding result is on record as “binds”.

Turning to B2, the binding result is listed as “binds”.

For B3, the binding result is “binds”.
